Experimental data as given in paper PMC8746315, “Biophysical Characterization of Novel DNA Aptamers against K103N/Y181C Double Mutant HIV-1 Reverse Transcriptase”.

B1: KY44 (ssDNA)
DNA: GTGCAAGCGTACGAAGGGATAATTCACTCTAGGAGCTTCT
B2: KY22 (ssDNA)
DNA: CACACTAAGGGAGTAGGAATCCGCGGTCACAATGTTCCTG
B3: KY28 (ssDNA)
DNA: CCAGAAAGCTCGGGTTCGTTCCACAAATAACACTTGCCC
B4: KY1 (ssDNA)
DNA: AGTAAGACTATAATTCAGTCCTCATTGATTTCCCACATCG
B5: KY23 (ssDNA)
DNA: CTATAGGGGGTTGCATCTTAGACATTAATGTTCATTTACA

target: HIV-1 reverse transcriptase, wild type (HIV-1, UniProt P04585;P04585 588-1147;588-1027); assay: SPR; SPR: 10 mM HEPES pH 7.5, 150 mM NaCl, 80 mM KCl, 5 mM MgCl2, 25 C, RT on NTA chip; NMR: 10 mM Tris-d11 pD 7.6, 200 mM KCl, 1.5 mM sodium azide, 4 mM MgCl2; inhibition assay 25 C, 30 min; conditions: protein: recombinant; (NTA chip capture); copies: 1;1

Binder | Kd [nM]
B1 | 2150
B2 | 1040
B3 | 1020
B4 | 2170
B5 | 55.2
